Drawing on patent publication US20230136228A1, this text covers Factor to PEAK WT and MFI for 1 substance.

Test [1] deals with human CEACAM1 (human) (UniProt P13688). The test can be described thus: flow cytometry, MFI on transfected PEAK cells divided by MFI on WT PEAK cells. (In general: In flow cytometry, cells or beads pass a laser one at a time.)
The target of test [2] is human CEACAM6 (human) (UniProt P40199). Described as above.
Test [3] addresses human CEACAM5 (carcinoembryonic antigen, CEA), cell surface (human) (UniProt P06731). The test is described as above.
Test [4] has as its target human CEACAM4 (human) (UniProt O75871). Described as above.
Test [5] addresses human CEACAM8 (human) (UniProt P31997). The description is as above.
In test [6] the target is human CEACAM3 (human) (UniProt P40198). The description is as above.
human CEACAM3 (human), sequence (P40198 35-252): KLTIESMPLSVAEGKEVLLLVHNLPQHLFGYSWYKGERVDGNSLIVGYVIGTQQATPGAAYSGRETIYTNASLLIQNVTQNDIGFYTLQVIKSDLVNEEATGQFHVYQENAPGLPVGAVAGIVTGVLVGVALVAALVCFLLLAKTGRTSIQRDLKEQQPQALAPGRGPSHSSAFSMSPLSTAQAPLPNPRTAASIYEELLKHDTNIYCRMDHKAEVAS
For test [7], the target named is human CEACAM1 (human) (UniProt P13688). The test can be described thus: flow cytometry, transfected PEAK cells, equimolar to 10 mcg/ml full-size antibody.
In test [8] the target is human CEACAM6 (human) (UniProt P40199). The description is as above.
Test [9] has as its target human CEACAM5 (carcinoembryonic antigen, CEA), cell surface (human) (UniProt P06731). Described as above.
In test [10] the target is human CEACAM4 (human) (UniProt O75871). Described as above.
human CEACAM4 (human), sequence (O75871 36-244): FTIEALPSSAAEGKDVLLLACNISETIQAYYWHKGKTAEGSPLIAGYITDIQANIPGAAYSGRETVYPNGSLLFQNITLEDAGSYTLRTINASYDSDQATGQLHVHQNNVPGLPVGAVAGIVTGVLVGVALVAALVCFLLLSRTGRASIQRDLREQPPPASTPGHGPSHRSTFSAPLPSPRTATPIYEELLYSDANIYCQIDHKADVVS
Test [11] has as its target human CEACAM8 (human) (UniProt P31997). The test is described as above.
The target of test [12] is human CEACAM3 (human) (UniProt P40198). The description is as above.

human CEACAM1 (human), sequence (P13688 35-526): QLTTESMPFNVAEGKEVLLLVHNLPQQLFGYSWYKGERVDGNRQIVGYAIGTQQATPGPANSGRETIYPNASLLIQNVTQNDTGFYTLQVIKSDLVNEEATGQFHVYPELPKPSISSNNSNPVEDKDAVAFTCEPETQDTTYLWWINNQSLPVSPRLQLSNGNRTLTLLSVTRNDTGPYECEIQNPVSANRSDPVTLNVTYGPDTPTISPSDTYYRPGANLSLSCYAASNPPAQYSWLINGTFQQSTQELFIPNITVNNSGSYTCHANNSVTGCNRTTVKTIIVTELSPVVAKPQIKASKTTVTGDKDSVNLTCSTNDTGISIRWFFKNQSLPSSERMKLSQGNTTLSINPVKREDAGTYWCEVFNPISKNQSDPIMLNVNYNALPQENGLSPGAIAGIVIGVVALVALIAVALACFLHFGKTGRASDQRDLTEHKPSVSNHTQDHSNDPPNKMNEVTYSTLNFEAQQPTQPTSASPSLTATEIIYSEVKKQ
human CEACAM6 (human), sequence (P40199 35-320): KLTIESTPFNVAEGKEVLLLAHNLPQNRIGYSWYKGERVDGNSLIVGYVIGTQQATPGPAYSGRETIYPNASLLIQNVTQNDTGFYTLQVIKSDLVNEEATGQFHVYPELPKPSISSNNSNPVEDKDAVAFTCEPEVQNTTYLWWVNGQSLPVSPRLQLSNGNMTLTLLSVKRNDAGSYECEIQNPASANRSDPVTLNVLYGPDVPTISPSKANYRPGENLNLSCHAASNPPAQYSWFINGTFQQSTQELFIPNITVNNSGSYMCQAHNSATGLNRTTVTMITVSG
human CEACAM8 (human), sequence (P31997 35-320): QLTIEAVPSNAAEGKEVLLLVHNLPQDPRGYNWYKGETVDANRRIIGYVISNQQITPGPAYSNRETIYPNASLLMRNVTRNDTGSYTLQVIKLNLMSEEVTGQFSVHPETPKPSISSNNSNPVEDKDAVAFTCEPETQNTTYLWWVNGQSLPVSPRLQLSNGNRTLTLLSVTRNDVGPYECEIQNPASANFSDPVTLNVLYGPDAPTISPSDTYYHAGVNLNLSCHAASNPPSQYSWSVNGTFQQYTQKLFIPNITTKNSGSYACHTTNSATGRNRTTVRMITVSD
human CEACAM5 (carcinoembryonic antigen, CEA), cell surface (human), sequence (P06731 35-685 limits assumed): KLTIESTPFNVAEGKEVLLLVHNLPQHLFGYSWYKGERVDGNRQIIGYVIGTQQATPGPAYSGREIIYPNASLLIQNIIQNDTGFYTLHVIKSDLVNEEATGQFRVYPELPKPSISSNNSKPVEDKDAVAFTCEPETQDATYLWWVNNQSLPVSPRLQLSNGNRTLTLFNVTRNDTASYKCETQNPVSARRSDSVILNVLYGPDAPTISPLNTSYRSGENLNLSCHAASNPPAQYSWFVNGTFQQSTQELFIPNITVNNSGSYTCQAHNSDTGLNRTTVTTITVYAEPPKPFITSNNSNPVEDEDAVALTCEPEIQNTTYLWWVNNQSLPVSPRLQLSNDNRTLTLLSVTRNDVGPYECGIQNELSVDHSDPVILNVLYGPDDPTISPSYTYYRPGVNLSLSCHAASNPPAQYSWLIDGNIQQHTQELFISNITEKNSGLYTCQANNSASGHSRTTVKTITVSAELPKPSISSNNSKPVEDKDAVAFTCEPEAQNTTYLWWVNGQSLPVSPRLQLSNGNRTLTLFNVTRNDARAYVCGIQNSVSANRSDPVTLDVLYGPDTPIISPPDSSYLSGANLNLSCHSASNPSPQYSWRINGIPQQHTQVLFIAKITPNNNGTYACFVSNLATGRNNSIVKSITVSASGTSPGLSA

As for MEDI-565 BiTE (bispecific antibody), the Factor to PEAK WT was 1.2 fold in test [1]; 1.6 fold in [2]; 15.7 fold in test [3]; 1.1 fold in test [4]; 20.4 fold in test [5]; 0.8 fold in [6]. The MFI came out at 1470 MFI in [7]; 1830 MFI in test [8]; 18400 MFI in [9]; 1340 MFI in [10]; 24000 MFI in test [11]; 943 MFI in test [12].
